# B1: MBP-CUB1CUB2 domains of PCPE-2, WT [human] / bone morphogenetic protein-1 [human] (parent complex)
# chain 1: QSPERPVFTCGGILTGESGFIGSEGFPGVYPPNSKCTWKITVPEGKVVVLNFRFIDLESDNLCRYDFVDVYNGHANGQRIGRFCGTFRPGALVSSGNKMMVQMISDANTAGNGFMAMFSAAEPNERGDQYCGGLLDRPSGSFKTPNWPDRDYPAGVTCVWHIVAPKNQLIELKFEKFDVERDNYCRYDYVAVFNGGEVNDARRIGKYCGDSPPAPIVSERNELLIQFLSDLSLTADGFIGHYIFRPK
# chain 2: AATSRPERVWPDGVIPFVIGGNFTGSQRAVFRQAMRHWEKHTCVTFLERTDEDSYIVFTYRPCGCCSYVGRRGGGPQAISIGKNCDKFGIVVHELGHVVGFWHEHTRPDRDRHVSIVRENIQPGQEYNFLKMEPQEVESLGETYDFDSIMHYARNTFSRGIFLDTIVPKYEVNGVKPPIGQRTRLSKGDIAQARKLYKCPACGETLQDSTGNFSSPEYPNGYSAHMHCVWRISVTPGEKIILNFTSLDLYRSRLCWYDYVEVRDGFWRKAPLRGRFCGSKLPEPIVSTDSRLWVEFRSSSNWVGKGFFAVYEAICGGDVKKDYGHIQSPNYPDDYRPSKVCIWRIQVSEGFHVGLTFQSFEIERHDSCAYDYLEVRDGHSESSTLIGRYCGYEKPDDIKSTSSRLWLKFVSDGSINKAGFAVNFFKEVDECSRPNRGGCEQRCLNTLGSYKCSCDPGYELAPDKRRCEAACGGFLTKLNGSITSPGWPKEYPPNKNCIWQLVAPTQYRISLQFDFFETEGNDVCKYDFVEVRSGLTADSKLHGKFCGSEKPEVITSQYNNMRVEFKSDNTVSKKGFKAHFFSEKRPALQPPRGRPHQLKFRVQKRNRTPQ
# Variants of: B1
# Assay: SPR; 50 nM MBP-CUB1CUB2; immobilized BMP-1 (1302 and 1492 RU); parent: 100; read off a plot
row,percent of parent [% binding / WT],Variant
1,~84,chain 1 QSPERPVFTCGGILTGESGFIGSEGFPGVYPPNSKCTWKITVPEGKVVVLNFRFIDLESDNLCRYDFVDVYNGHANGQRIGRFCGTARPGALVSSGNKMMVQMISDANTAGNGFMAMFSAAEPNERGDQYCGGLLDRPSGSFKTPNWPDRDYPAGVTCVWHIVAPKNQLIELKFEKFDVERDNYCRYDYVAVFNGGEVNDARRIGKYCGDSPPAPIVSERNELLIQFLSDLSLTADGFIGHYIFRPK [chain 1 F87A]
2,~90,chain 1 QSPERPVFTCGGILTGESGFIGSEGFPGVYPPNSKCTWKITVPEGKVVVLNFRFIDLESDNLCRYDFVDVYNGHANGQRIGRFCGTFRPGALVSSGNKMMVQMISDANTAGNGFMAMFSAAEPNERGDQYCGGLLDRPSGSFKTPNWPDADYPAGVTCVWHIVAPKNQLIELKFEKFDVERDNYCRYDYVAVFNGGEVNDARRIGKYCGDSPPAPIVSERNELLIQFLSDLSLTADGFIGHYIFRPK [chain 1 R150A]

# — publication PMC10696041 (2023)
